Experiments:
c-Src SH2 = experiment: SH2 binding enrichment of the phosphorylated peptide, bacterial display (enrichment ratio); higher = better substrate or ligand; peptides without Tyr show the background
Grb2 SH2 = Grb2 SH2 (UniProt P62993); experiment: as above
SHP2-C SH2 = experiment: as above
Fer (mouse) = experiment: phosphorylation enrichment, bacterial display (enrichment ratio); higher = better substrate or ligand; peptides without Tyr show the background
FGFR1 = FGFR1 (UniProt P11362); experiment: as above
Fes = Fes (UniProt P07332); experiment: as above
Chain of Fes (P07332 whole entry, looked up): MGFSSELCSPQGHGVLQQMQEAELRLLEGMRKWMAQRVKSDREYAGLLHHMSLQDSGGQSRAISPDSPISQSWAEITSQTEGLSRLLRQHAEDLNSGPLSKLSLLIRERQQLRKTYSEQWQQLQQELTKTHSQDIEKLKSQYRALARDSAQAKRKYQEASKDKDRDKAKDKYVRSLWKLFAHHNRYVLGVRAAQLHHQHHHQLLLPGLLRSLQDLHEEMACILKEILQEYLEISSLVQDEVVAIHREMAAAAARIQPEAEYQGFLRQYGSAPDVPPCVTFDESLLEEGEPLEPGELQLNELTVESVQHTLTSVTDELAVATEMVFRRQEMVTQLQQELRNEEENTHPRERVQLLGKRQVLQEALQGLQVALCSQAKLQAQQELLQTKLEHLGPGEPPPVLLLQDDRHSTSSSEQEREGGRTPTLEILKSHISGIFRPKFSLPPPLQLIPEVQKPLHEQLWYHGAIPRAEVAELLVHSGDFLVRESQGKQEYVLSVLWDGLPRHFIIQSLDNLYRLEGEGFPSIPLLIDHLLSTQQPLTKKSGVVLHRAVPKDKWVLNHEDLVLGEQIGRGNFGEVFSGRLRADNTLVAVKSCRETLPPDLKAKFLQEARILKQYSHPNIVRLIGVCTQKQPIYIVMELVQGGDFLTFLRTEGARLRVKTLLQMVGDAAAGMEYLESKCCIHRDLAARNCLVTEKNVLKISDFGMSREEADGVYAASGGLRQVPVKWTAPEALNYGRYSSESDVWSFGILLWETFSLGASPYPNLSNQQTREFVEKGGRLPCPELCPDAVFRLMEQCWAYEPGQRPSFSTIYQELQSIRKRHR

EPHB2 = EPHB2 (UniProt P29323); experiment: as above
AncSZ = experiment: as above
Fyn = Fyn (UniProt P06241); experiment: as above
Chain of Fyn (P06241 whole entry, looked up): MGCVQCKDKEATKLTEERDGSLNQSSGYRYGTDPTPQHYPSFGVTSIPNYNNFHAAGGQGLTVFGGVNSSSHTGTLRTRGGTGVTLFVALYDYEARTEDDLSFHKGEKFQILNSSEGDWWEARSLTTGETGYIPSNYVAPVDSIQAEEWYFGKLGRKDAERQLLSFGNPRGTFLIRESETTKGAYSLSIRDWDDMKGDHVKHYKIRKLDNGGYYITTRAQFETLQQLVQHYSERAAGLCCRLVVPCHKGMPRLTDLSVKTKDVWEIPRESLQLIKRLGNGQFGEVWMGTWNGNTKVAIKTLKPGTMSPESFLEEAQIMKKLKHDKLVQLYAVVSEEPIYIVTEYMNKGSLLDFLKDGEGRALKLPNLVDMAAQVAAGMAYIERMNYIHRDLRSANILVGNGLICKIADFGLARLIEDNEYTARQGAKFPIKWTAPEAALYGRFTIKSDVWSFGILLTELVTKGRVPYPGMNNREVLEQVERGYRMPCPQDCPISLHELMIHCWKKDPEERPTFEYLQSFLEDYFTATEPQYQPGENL

MERTK = MERTK (UniProt Q12866); experiment: as above
FGFR3 = FGFR3 (UniProt P22607); experiment: as above
Chain of FGFR3 (P22607 whole entry, looked up): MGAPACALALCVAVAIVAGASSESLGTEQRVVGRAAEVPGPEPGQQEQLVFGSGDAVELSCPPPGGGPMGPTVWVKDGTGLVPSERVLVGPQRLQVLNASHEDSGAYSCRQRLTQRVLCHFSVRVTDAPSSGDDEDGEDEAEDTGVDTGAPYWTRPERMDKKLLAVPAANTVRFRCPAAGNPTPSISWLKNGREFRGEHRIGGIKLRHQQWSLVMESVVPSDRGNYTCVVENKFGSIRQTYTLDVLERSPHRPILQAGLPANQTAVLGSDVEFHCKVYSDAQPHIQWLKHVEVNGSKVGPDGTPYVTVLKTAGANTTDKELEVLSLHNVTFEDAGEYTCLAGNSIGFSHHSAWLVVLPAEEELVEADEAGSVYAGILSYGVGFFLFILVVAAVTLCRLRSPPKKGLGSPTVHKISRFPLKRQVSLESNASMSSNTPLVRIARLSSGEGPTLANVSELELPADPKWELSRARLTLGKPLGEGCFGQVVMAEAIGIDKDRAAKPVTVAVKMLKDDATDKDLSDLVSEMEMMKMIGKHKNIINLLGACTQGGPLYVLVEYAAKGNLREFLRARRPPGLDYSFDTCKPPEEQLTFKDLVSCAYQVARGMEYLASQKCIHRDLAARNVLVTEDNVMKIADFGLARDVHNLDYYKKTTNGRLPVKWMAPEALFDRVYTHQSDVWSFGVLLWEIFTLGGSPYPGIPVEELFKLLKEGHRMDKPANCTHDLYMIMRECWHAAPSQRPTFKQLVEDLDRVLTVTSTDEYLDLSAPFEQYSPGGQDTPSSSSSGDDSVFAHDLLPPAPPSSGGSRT

c-Abl (mouse) = experiment: as above
EPHB1 = EPHB1 (UniProt P54762); experiment: as above
Chain of EPHB1 (P54762 whole entry, looked up): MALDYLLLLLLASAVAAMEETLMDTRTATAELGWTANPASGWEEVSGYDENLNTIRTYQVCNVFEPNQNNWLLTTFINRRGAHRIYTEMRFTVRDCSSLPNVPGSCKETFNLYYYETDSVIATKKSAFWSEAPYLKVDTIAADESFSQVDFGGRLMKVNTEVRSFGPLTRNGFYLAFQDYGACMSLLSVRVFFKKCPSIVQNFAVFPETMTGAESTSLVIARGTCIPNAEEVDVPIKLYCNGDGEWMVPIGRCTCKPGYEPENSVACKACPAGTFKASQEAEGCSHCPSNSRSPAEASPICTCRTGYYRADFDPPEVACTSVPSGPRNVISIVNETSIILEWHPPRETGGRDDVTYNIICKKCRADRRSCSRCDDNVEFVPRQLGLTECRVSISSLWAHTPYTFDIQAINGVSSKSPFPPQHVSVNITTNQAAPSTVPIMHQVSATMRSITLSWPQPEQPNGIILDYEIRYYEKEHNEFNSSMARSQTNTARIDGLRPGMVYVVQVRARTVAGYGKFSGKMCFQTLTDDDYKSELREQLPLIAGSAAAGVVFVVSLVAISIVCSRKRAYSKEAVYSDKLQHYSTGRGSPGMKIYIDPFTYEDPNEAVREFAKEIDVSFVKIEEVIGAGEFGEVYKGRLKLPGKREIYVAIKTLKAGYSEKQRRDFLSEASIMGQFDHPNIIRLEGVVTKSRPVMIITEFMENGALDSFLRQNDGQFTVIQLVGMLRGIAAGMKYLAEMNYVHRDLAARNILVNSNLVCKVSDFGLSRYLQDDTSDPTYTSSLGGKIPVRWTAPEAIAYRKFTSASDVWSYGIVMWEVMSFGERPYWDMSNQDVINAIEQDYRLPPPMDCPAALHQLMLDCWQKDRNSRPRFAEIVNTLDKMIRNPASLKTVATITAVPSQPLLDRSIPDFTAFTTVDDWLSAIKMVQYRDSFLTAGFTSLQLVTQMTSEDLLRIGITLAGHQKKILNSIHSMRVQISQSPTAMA

c-Src = experiment: as above
Jak2 = Jak2 (UniProt O60674); experiment: as above
Chain of Jak2 (O60674 whole entry, looked up): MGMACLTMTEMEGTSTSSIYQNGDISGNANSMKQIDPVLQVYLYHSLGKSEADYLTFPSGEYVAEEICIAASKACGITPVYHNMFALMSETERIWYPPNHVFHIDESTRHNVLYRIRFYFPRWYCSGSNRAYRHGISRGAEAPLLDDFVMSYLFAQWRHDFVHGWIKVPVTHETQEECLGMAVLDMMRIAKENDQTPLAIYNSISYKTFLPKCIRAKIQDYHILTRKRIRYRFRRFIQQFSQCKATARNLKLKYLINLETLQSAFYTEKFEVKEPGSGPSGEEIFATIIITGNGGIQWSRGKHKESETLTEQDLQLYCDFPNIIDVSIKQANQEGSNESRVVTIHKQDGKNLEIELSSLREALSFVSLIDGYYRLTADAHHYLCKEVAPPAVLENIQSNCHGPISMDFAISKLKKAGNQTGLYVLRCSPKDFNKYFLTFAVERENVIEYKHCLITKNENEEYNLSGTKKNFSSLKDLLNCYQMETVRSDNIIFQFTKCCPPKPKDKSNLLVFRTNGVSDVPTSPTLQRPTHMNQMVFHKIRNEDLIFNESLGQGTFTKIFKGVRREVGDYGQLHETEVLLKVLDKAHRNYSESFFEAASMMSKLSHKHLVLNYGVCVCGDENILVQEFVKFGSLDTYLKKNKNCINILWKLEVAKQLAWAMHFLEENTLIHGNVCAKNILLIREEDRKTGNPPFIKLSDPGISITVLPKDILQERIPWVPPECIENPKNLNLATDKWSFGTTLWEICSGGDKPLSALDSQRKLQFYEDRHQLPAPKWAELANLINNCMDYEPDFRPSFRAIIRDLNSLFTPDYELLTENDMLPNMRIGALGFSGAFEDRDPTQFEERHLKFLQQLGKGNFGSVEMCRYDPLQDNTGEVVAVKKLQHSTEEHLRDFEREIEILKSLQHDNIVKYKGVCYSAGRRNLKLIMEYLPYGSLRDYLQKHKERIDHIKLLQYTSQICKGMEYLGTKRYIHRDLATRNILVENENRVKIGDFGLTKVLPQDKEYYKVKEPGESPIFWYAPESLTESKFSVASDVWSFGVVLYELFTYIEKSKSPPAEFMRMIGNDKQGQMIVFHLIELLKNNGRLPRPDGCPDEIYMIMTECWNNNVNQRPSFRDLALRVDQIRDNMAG

Hck = Hck (UniProt P08631); experiment: as above
Chain of Hck (P08631 whole entry, looked up, the tested form may be a part): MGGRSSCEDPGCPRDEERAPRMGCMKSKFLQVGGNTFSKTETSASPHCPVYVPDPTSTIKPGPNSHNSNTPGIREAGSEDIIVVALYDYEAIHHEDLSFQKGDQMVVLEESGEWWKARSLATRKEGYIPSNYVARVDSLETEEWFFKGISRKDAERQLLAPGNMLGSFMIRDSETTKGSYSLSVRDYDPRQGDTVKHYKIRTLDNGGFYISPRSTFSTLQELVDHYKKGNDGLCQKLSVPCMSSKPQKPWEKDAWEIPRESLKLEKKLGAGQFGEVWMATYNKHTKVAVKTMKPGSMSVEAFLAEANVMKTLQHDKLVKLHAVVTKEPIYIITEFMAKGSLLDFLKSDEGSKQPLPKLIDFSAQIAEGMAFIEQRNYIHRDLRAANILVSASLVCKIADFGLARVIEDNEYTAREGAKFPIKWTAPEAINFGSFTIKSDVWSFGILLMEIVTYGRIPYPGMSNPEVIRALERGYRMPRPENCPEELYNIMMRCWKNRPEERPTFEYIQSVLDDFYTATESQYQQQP
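Wherever SH2 binding enrichment of the phosphorylated peptide, bacterial display is given: peptide library displayed on the E. coli surface as eCPX fusions, selected cells deep-sequenced, score is each peptide's frequency after selection divided by its frequency in the input.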
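Wherever phosphorylation enrichment, bacterial display is given: 11-residue human phosphosite peptides and single-mutation variants displayed on the E. coli surface, counted by deep sequencing, each peptide's frequency after selection divided by its frequency in the unselected input library; frequency after pTyr selection over input frequency; kinase dosed for 20-30% of maximal phosphorylation in three min.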

Chain of Grb2 SH2 (P62993 whole entry, looked up): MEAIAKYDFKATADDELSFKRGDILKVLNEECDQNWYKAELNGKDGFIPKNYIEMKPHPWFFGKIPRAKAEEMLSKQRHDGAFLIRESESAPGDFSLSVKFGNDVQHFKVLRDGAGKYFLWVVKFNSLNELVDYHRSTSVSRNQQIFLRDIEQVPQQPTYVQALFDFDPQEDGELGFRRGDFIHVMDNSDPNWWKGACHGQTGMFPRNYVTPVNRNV

Sequence	SH2 binding enrichment (c-Src SH2)	SH2 binding enrichment (Grb2 SH2)	SH2 binding enrichment (SHP2-C SH2)	phosphorylation enrichment (Fer (mouse))	phosphorylation enrichment (FGFR1)	phosphorylation enrichment (Fes)	phosphorylation enrichment (EPHB2)	phosphorylation enrichment (AncSZ)	phosphorylation enrichment (Fyn)	phosphorylation enrichment (MERTK)	phosphorylation enrichment (FGFR3)	phosphorylation enrichment (c-Abl (mouse))	phosphorylation enrichment (EPHB1)	phosphorylation enrichment (c-Src)	phosphorylation enrichment (Jak2)	phosphorylation enrichment (Hck)
CTAIHYNYMCN [TP53_Y234_T231A]	6.38	1.3	2.87	0.401	0.479	0.727	0.506	0.707	0.386	0.398	0.581	0.48	0.628	0.441	0.569	0.429
MGRVKYGAYIN [GLB1_Y485_N484K]	1.38	2.27	1.51	0.416	0.374	0.569	0.408	0.506	0.472	0.358	0.47	0.461	0.282	0.378	0.447	0.401
TEFIQYVRRKN [MAX_Y73_M74V_YF]	0.492	0.863	0.609	0.483	0.74	0.626	0.551	0.66	0.675	0.639	0.653	0.435	0.48	0.473	0.521	0.559
LARDMCDKEYY [MET_Y1230_Y1230C]	0.952	0.714	0.593	0.897	0.995	1.89	1.01	1.64	0.902	0.84	0.828	1.06	0.853	0.849	2.02	0.834
TRRSSYEDSSL [HNF4A_Y144]	0.51	0.822	0.531	0.447	0.42	0.707	0.529	1.2	0.53	0.5	0.57	0.402	0.379	0.447	0.465	0.457
HDKEYYSVHNK [MET_Y1235_Y1230H]	0.783	0.939	1.67	0.865	2.8	0.729	0.472	1.24	0.739	0.503	1.88	0.706	0.714	0.506	0.75	0.911
TKHTFYKQPMF [GBA_Y451_D448H]	0.941	1.04	1.13	0.44	0.539	0.769	0.558	1	0.478	0.441	0.482	0.522	0.429	0.377	0.49	0.475
LVKDGYQTAQP [CSF1R_Y873_M875T]	1.35	0.909	0.307									0.544		1.29	1.27	
AATTAYSKPKQ [MAP3K7_Y405_R410Q]	0.477	0.648	0.57									0.121		0.063	0.257	
